Source: patent US20040001839A1, “Multimers - isolated molecules comprising epitopes containing sulfated moieties, antibodies to such epitopes, and uses thereof” (priority 2000, published 2004)

Columns and labels:
[1] = molecular target: T1, recombinant bacterial derived glycocalicin (Homo sapiens, UniProt P07359); assay: Western blot on E. coli recombinant glycocalicin; format: binding; conditions: E. coli cell lysates, IPTG induced
T1 construct: glycocalicin (GC, amino acid 1 to amino acid 493 of GPIbα); made in house; host or cells: E. coli BL21 DE3, total cell lysate
Procedure: The DNA fragment encoding for glycocalicin (GC, amino acid 1 to amino acid 493 of GPIbα) was cloned into an IPTG inducible prokaryotic vector cassette. E. coli (BL21 DE3) cells harboring the newly constructed plasmid were grown at 37° C. to O.D. 0.7-0.8, than at 37° C. for 3 hours for in the presence of IPTG for induction.
SDS-polyacrylamide gel loaded either with semi-purified human platelet derived glycocalicin (“GC”) or with E. coli cell lysates (“total”) derived from induced and non-induced cells were analyzed. Western blot analysis was performed with biotinylated Y1-scFv, polyclonal rabbit anti-human glycocalicin antibody, commercially available mouse anti-human CD42 monoclonal antibody (SZ2 Immunotech, PM640 Serotec, HIP1 Pharmigen, AN51 DAKO), and polyclonal antibody against the N-terminus of GPIbα (Sc-7071, Santa Cruz).

Jurkat cells = assay: FACS binding to Jurkat cells (IgG-Y1, scFv-Y1, diabodies, triabodies); set-up: species or system human; conditions: 1 μg scFv-Y1 versus 5 ng IgG-Y1, two-step staining
Procedure: Binding experiments were performed to determine the level of binding of the IgG-Y1 molecule compared to the binding level of the scFv-Y1 molecule. A two-step staining procedure was employed, wherein 5 ng of IgG-Y1 were reacted with both RAJI cells (negative control, FIG. 44) and Jurkat cells (Y1 positive cells, FIG. 44). For detection, PE-labeled goat anti-human IgG was used. Similarly, 1 μg of scFv-Y1 was reacted with Jurkat cells (FIG. 44), and PE-labeled rabbit anti-scFv was used for detection.
FACS analysis was performed on Jurkat cells using a “three step staining procedure.” First, crude extracts or purified unlabeled scFv are stained, then mouse anti-myc antibodies, and finally, FITC- or PE-conjugated anti-mouse antibodies. FACS analysis requires 5-8×10^5 cells, which have been Ficoll-purified and resuspended in PBS+1% BSA. Binding was carried out for 1 hour at 4° C. After each step, cells were washed and resuspended in PBS+1% BSA. After the final staining step, cells were fixed by re-suspending in PBS, 1% BSA, 2% formaldehyde, and then read by FACS (Becton-Dickinson).
The binding of Y1-scFv was compared to that of diabodies and triabodies.

washed platelets = assay: Ristocetin-induced agglutination of washed platelets (scFv); format: cell-based, human; conditions: for % agglutination: 100% = ristocetin treatment; for % inhibition: ristocetin-induced agglutination
Procedure: Aggregation is determined in PRP due to the presence of thrombotic agents, while agglutination is determined in washed platelets. The effect of Y1 (scFv) on agglutination of washed platelets was tested at various concentrations of Y1. Platelets were pre-incubated with Y1 scFv, Y17 scFv, Y16-scFv, or a control TM-1 scFv for 4 min at 37° C. before being exposed to ristocetin, an inducer of platelet agglutination and aggregation.
Platelet concentrate in acid-citrate-dextrose (ACD) was obtained from a blood bank, platelets were isolated, washed once in buffer containing ACD and saline in a ratio of 1:7. The platelets were centrifuged at 800 g for 10 min after each wash and were resuspended in Tyrodes solution (2 mM MgCl2, 137 mM NaCl, 2.68 mM KCl, 3 mM NaH2PO4, 0.1% glucose, 5 mM Hepes and 0.35% albumin, pH 7.35) and count the number of cells.
(§1) For platelet aggregation studies, platelet rich plasma (PRP) and washed platelets were stirred at 500 rpm at 37° C. in whole blood Lumiaggregometer (Chronolog, Havertown, Pa.). The difference in light transmission through the platelet suspension and suspending medium was taken as 100% aggregation. The effect of Y1 on platelet aggregation was evaluated by addition of different concentration of Y1 before the addition of agonist, and the effect was recorded for four minutes.
The effect of Y17-scFv on vWF-dependent agglutination of platelets was tested at different concentrations of Y17.

[2] = tested on: platelet-rich-plasma (PRP); assay: Ristocetin-induced aggregation of platelet-rich plasma (scFv); format: cell-based, human; conditions: scFv 25 μg/ml, 100% = ristocetin treatment
Procedure: The effect of Y1 (scFv) on aggregation of platelet-rich-plasma (PRP) was tested at various concentrations of Y1. PRP was pre-incubated with Y1 scFv, Y17 scFv, or a control sTM-1cFv for 4 min at 37° C. before being exposed to ristocetin, an inducer of platelet agglutination and aggregation. A reversible inhibitory effect was observed when scFv was added to PRP prior to the addition of ristocetin, and it was dose dependent.
Blood was collected into a tube containing 3.8% sodium citrate. Platelet-rich plasma was prepared by centrifugation at 250×g for 10 minutes.
as §1

KG-1 cells = assay: Binding competition experiments on KG-1 cells (monomer, dimer, Y1 IgG); set-up: species or system human
Text: To compare the binding of the scFv monomer (also referred to as CONY1) with the Y1 dimer, binding competition experiments were done in vitro on KG-1 cells. In addition, these experiments also compared the binding of the full Y1 IgG to the scFv Y1 monomers. To perform this study, a Y1 IgG was labeled with biotin.

B1: Y1 scFv: fully human scFv clone binding platelets and AML cells; SEQ ID NO:25, heavy chain CDR3 SEQ ID NO:8 (protein, listed as Homo sapiens)
scFv: MKYLLPTAAAGLLLLAAQPAMAEVQLVESGGGVVRPGGSLRLSCAASGFTFDDYGMSWVRQAPGKGLEWVSGINWNGGSTGYADSVKGRFTISRDNAKNSLYLQMNSLRAEDTAVYYCARMRAPVIWGQGTLVTVSRGGGGSGGGGSGGGGSSELTQDPAVSVALGQTVRITCQGDSLRSYYASWYQQKPGQAPVLVIYGKNNRPSGIPDRFSGSSSGNTASLTITGAQAEDEADYYCNSRDSSGNHVVFGGGTKLTVLGAAAEQKLISEEDLNGAA
- recognition in Western blot [1]: did not recognize
- more molecules needed for a level of detection similar to IgG-Y1 (Jurkat cells): approximately 10^3 fold
- % agglutination (washed platelets; scFv 4 μg/ml): 92%
- % inhibition (washed platelets; scFv 4 μg/ml): 8%
- % inhibition (washed platelets; scFv 4 μg/ml, listed as Y1): No inhibition
- % agglutination (washed platelets; scFv 12.5 μg/ml): 67%
- % inhibition (washed platelets; scFv 12.5 μg/ml): 33%
- % inhibition (washed platelets; scFv 12.5 μg/ml, listed as Y1): only partial inhibition
- % agglutination (washed platelets; scFv 25 μg/ml): 23%
- % aggregation [2]: 87%
- amount bound to KG-1 cells to the same extent (KG-1 cells; FITC-labeled, without serum): 1 µg
- competition with Y1 IgG-Biotin for binding to KG-1 cells (KG-1 cells; Y1 IgG-Biotin 50 ng, Y1 scFvs 5 μg and 10 μg): partially competed
